Measurements as given in patent US11045546 (CYTODYN, dated 2021).

Molecular target: C-C chemokine receptor 5 (CCR5) (human, UniProt P51681 1-352)
Assay: cell-based or functional assay

Sequence of C-C chemokine receptor 5 (CCR5) (P51681 whole entry): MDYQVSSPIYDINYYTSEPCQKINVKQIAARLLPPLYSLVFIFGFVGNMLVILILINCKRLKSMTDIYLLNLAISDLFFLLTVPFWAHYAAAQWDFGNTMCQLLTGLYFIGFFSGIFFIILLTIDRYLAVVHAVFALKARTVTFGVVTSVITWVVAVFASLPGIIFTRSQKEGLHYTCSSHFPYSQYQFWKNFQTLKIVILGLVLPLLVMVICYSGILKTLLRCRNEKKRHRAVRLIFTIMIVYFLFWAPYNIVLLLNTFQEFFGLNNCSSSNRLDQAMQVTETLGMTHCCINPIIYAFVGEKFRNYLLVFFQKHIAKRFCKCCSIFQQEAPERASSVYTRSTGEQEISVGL

B1: Leronlimab (PRO 140) (antibody, human IgG4, kappa, V domains shown)
VH: EVQLVESGGGLVKPGGSLRLSCAASGYTFSNYWIGWVRQAPGKGLEWIGDIYPGGNYIRNNEKFKDKTTLSADTSKNTAYLQMNSLKTEDTAVYYCGSSFGSNYVFAWFTYWGQGTLVTVSS
VL: DIVMTQSPLSLPVTPGEPASISCRSSQRLLSSYGHTYLHWYLQKPGQSPQLLIYEVSNRFSGVPDRFSGSGSGTDFTLKISRVEAEDVGVYYCSQSTHVPLTFGQGTKVEIKR
inhibition of MIP-1α-induced calcium mobilization, IC50: 21.2 µg/mL | inhibition of MIP-1β-induced calcium mobilization, IC50: 39.6 µg/mL | inhibition of RANTES (CCL5)-induced calcium mobilization, IC50: 59.1 µg/mL
